Experiment [1] concerns the target T1, human CD47 (human, UniProt Q08722 19-323). As to the kind of experiment: flow cytometry, titration of SIRPα-Fc-bio on Jurkat cells. On the technique in general: In flow cytometry, cells or beads pass a laser one at a time.
Experiment [2] deals with T1, human CD47. Kind of experiment: cell-based or functional assay.

In the experiment with human CD47 [1], “biotinylated fusion protein of SIRPα (SIRPα-Fc-bio) (Fc fusion)” showed an EC70 of 7.5 µg/mL.

B1: anti-CD47 antibody 2.3D11 (antibody, V domains shown)
VH: QVQLQESGPGLVKPSGTLSLTCAVSGVSIRSINWWNWVRQPPGKGLEWIGEIYHSGSTNYNPSLKSRVTISVDKSKNQFSLKLNSVTAADTAVYYCARDGGIAVTDYYYYGLDVWGQGTTVTVSS
VL: EIVLTQSPATLSLSPGERATLSCRASESVSSNLAWYQQKPGQAPRLLIYGAFNRATGIPARFSGSGSGTDFTLTISSLEPEDFAVYYCQQRSDWFTFGGGTKVEIKR
In the case of B1, the “phagocytosis of Raji tumor cell line targets by primary human macrophages (EC50)” value with human CD47 [2] was roughly 0.3 µg/mL.

One may read the EC70 as the concentration needed for an effect of 70%. Higher therefore signals a need for much substance.

Values taken from patent publication US20180201677A1 (ERASMUS UNIVERSITY MEDICAL CENTER, published 2018).
